{
  "source": "patent US20060223116",
  "key": {"[1]": {"tested_on": "T1, truncated GST-fusion T-bet protein, C-terminal fragment", "T1 sequence (Q9UL17 whole entry, species assumed, looked up)": "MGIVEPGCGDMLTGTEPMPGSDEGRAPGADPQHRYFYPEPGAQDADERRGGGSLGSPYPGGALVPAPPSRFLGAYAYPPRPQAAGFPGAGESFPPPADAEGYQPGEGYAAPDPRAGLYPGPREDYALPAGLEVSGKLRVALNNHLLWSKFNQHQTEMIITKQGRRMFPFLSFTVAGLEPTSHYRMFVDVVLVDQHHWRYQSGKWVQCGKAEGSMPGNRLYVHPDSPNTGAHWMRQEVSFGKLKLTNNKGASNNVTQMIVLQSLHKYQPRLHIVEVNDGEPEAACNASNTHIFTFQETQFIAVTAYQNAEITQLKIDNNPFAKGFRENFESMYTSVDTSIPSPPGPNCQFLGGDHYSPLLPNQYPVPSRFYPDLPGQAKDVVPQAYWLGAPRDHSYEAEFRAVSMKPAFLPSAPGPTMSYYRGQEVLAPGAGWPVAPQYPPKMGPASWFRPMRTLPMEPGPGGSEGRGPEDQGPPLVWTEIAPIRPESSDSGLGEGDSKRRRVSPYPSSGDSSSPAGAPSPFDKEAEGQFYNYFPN"}, "[2]": {"tested_on": "T2, truncated GST-fusion T-bet protein, N-terminal fragment", "T2 sequence (Q9UL17 whole entry, species assumed, looked up)": "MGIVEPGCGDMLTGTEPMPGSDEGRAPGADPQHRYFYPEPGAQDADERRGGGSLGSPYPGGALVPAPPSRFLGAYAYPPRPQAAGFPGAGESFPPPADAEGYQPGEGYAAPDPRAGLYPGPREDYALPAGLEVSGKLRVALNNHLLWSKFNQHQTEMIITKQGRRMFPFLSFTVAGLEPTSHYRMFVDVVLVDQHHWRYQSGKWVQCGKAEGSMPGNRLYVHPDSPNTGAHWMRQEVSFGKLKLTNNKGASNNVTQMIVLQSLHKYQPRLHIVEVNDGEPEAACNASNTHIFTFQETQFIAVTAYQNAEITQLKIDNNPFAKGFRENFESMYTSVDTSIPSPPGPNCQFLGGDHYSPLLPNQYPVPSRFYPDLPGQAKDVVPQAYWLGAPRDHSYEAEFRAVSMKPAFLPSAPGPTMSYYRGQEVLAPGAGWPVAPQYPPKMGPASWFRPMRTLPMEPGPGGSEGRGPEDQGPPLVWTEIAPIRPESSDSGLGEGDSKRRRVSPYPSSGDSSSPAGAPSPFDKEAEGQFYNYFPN"}},
  "data": [
    {"protein": "ITK-FLAG (full length IL-2 inducible T cell tyrosine kinase, FLAG-tagged) (enzyme, UniProt Q08881 1-620, looked up, species assumed, full-length FLAG tag) MNNFILLEEQLIKKSQQKRRTSPSNFKVRFFVLTKASLAYFEDRHGKKRTLKGSIELSRIKCVEIVKSDISIPCHYKYPFQVVHDNYLLYVFAPDRESRQRWVLALKEETRNNNSLVPKYHPNFWMDGKWRCCSQLEKLATGCAQYDPTKNASKKPLPPTPEDNRRPLWEPEETVVIALYDYQTNDPQELALRRNEEYCLLDSSEIHWWRVQDRNGHEGYVPSSYLVEKSPNNLETYEWYNKSISRDKAEKLLLDTGKEGAFMVRDSRTAGTYTVSVFTKAVVSENNPCIKHYHIKETNDNPKRYYVAEKYVFDSIPLLINYHQHNGGGLVTRLRYPVCFGRQKAPVTAGLRYGKWVIDPSELTFVQEIGSGQFGLVHLGYWLNKDKVAIKTIREGAMSEEDFIEEAEVMMKLSHPKLVQLYGVCLEQAPICLVFEFMEHGCLSDYLRTQRGLFAAETLLGMCLDVCEGMAYLEEACVIHRDLAARNCLVGENQVIKVSDFGMTRFVLDDQYTSSTGTKFPVKWASPEVFSFSRYSSKSDVWSFGVLMWEVFSEGKIPYENRSNSEVVEDISTGFRLYKPRLASTHVYQIMNHCWKERPEDRPAFSRLLRQLAEIAESGL", "values": [
      {"measurement": "in vitro kinase assay (32P-ATP, autoradiography)", "setting": "[1]", "result": "both the N and C terminal fragments but not the DNA binding domain, could be phosphorylated by the Tec kinases, ITK and RLK"},
      {"measurement": "in vitro kinase assay (32P-ATP, autoradiography)", "setting": "[2]", "result": "both the N and C terminal fragments but not the DNA binding domain, could be phosphorylated by the Tec kinases, ITK and RLK"}
    ]}
  ]
}
